B1: VTI1B (parent)
chain: NKLLLSIIILLELAILGGLVYYKF

Variants of: B1
Test: protein stability index of a GFP-peptide fusion (GPS, HEK-293T) (PSI 1-6); higher = more stable
Conditions: c terminus: a fixed tail appended
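Note: lentivirally expressed fusions sorted by FACS into six bins by GFP to DsRed ratio, PSI derived from sequencing read proportions per bin multiplied by bin number.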

Variant	protein stability index
NKLLLSCIILLELAILGGLVYYKF	2.9
NKLLLSDIILLELAILGGLVYYKF	2.84
NKLLLSEIILLELAILGGLVYYKF	1.86
NKLLLSFIILLELAILGGLVYYKF	2.31
NKLLLSGIILLELAILGGLVYYKF	3.04
NKLLLSHIILLELAILGGLVYYKF	2.65
NKLLLSKIILLELAILGGLVYYKF	2.41
NKLLLSLIILLELAILGGLVYYKF	3.54
NKLLLSMIILLELAILGGLVYYKF	3.23
NKLLLSNIILLELAILGGLVYYKF	2.1
NKLLLSQIILLELAILGGLVYYKF	2.44
NKLLLSRIILLELAILGGLVYYKF	3.87
NKLLLSTIILLELAILGGLVYYKF	3.78
NKLLLSVIILLELAILGGLVYYKF	2.32
NKLLLSWIILLELAILGGLVYYKF	3.61
NKLLLSYIILLELAILGGLVYYKF	2.74
NKLLLSIAILLELAILGGLVYYKF	3.36
NKLLLSIDILLELAILGGLVYYKF	3.18
NKLLLSIEILLELAILGGLVYYKF	2.35
NKLLLSIFILLELAILGGLVYYKF	2.03
NKLLLSIGILLELAILGGLVYYKF	1.21
NKLLLSIHILLELAILGGLVYYKF	4.21
NKLLLSIKILLELAILGGLVYYKF	2.87
NKLLLSILILLELAILGGLVYYKF	3.04

Variant	protein stability index
NKLLLSIMILLELAILGGLVYYKF	2.81
NKLLLSINILLELAILGGLVYYKF	3.11
NKLLLSIPILLELAILGGLVYYKF	2.61
NKLLLSIQILLELAILGGLVYYKF	3.49
NKLLLSIRILLELAILGGLVYYKF	1.95
NKLLLSISILLELAILGGLVYYKF	3.02
NKLLLSITILLELAILGGLVYYKF	3.41
NKLLLSIVILLELAILGGLVYYKF	2.56
NKLLLSIWILLELAILGGLVYYKF	2.33
NKLLLSIYILLELAILGGLVYYKF	3.31
NKLLLSIICLLELAILGGLVYYKF	2.97
NKLLLSIIDLLELAILGGLVYYKF	3.1
NKLLLSIIELLELAILGGLVYYKF	2.85
NKLLLSIIFLLELAILGGLVYYKF	2.03
NKLLLSIIGLLELAILGGLVYYKF	2.8
NKLLLSIIHLLELAILGGLVYYKF	2.47
NKLLLSIIKLLELAILGGLVYYKF	3.22
NKLLLSIILLLELAILGGLVYYKF	2.16
NKLLLSIIMLLELAILGGLVYYKF	3.54
NKLLLSIINLLELAILGGLVYYKF	3.49
NKLLLSIIPLLELAILGGLVYYKF	3.12
NKLLLSIIQLLELAILGGLVYYKF	3.18
NKLLLSIIRLLELAILGGLVYYKF	3.19
NKLLLSIISLLELAILGGLVYYKF	4.04

Variant	protein stability index
NKLLLSIITLLELAILGGLVYYKF	2.58
NKLLLSIIVLLELAILGGLVYYKF	3.42
NKLLLSIIWLLELAILGGLVYYKF	1.51
NKLLLSIIYLLELAILGGLVYYKF	2.38
NKLLLSIIIALELAILGGLVYYKF	2.44
NKLLLSIIICLELAILGGLVYYKF	3.11
NKLLLSIIIDLELAILGGLVYYKF	2.71
NKLLLSIIIELELAILGGLVYYKF	3.16
NKLLLSIIIFLELAILGGLVYYKF	2.6
NKLLLSIIIGLELAILGGLVYYKF	2.46
NKLLLSIIIHLELAILGGLVYYKF	3.04
NKLLLSIIIILELAILGGLVYYKF	2.55
NKLLLSIIIKLELAILGGLVYYKF	3.36
NKLLLSIIIMLELAILGGLVYYKF	2.86
NKLLLSIIINLELAILGGLVYYKF	2.09
NKLLLSIIIPLELAILGGLVYYKF	3.62
NKLLLSIIIQLELAILGGLVYYKF	1.98
NKLLLSIIIRLELAILGGLVYYKF	2.63
NKLLLSIIISLELAILGGLVYYKF	4.51
NKLLLSIIITLELAILGGLVYYKF	1.93
NKLLLSIIIVLELAILGGLVYYKF	3.92
NKLLLSIIIWLELAILGGLVYYKF	3.4
NKLLLSIIIYLELAILGGLVYYKF	2.8
NKLLLSIIILCELAILGGLVYYKF	2.36

Variant	protein stability index
NKLLLSIIILDELAILGGLVYYKF	3.12
NKLLLSIIILEELAILGGLVYYKF	3.84
NKLLLSIIILFELAILGGLVYYKF	2.39
NKLLLSIIILGELAILGGLVYYKF	2.94
NKLLLSIIILHELAILGGLVYYKF	4.16
NKLLLSIIILKELAILGGLVYYKF	2.59
NKLLLSIIILMELAILGGLVYYKF	3.36
NKLLLSIIILNELAILGGLVYYKF	3.97
NKLLLSIIILPELAILGGLVYYKF	2.43
NKLLLSIIILQELAILGGLVYYKF	3.26
NKLLLSIIILRELAILGGLVYYKF	3.68
NKLLLSIIILSELAILGGLVYYKF	3.88
NKLLLSIIILTELAILGGLVYYKF	2.53
NKLLLSIIILVELAILGGLVYYKF	1.49
NKLLLSIIILWELAILGGLVYYKF	3.2
NKLLLSIIILLALAILGGLVYYKF	2.13
NKLLLSIIILLCLAILGGLVYYKF	2.57
NKLLLSIIILLDLAILGGLVYYKF	2.99
NKLLLSIIILLFLAILGGLVYYKF	2.17
NKLLLSIIILLGLAILGGLVYYKF	1.55
NKLLLSIIILLHLAILGGLVYYKF	2.64
NKLLLSIIILLILAILGGLVYYKF	2.73
NKLLLSIIILLKLAILGGLVYYKF	2.66
NKLLLSIIILLLLAILGGLVYYKF	2.33

Variant	protein stability index
NKLLLSIIILLMLAILGGLVYYKF	2.4
NKLLLSIIILLNLAILGGLVYYKF	1.44
NKLLLSIIILLPLAILGGLVYYKF	2.64
NKLLLSIIILLQLAILGGLVYYKF	3.45
NKLLLSIIILLRLAILGGLVYYKF	2.18
NKLLLSIIILLSLAILGGLVYYKF	2.68
NKLLLSIIILLTLAILGGLVYYKF	2.87
NKLLLSIIILLVLAILGGLVYYKF	2.85
NKLLLSIIILLWLAILGGLVYYKF	1.82
NKLLLSIIILLYLAILGGLVYYKF	2.01
NKLLLSIIILLEAAILGGLVYYKF	2.4
NKLLLSIIILLECAILGGLVYYKF	1.85
NKLLLSIIILLEDAILGGLVYYKF	2.7
NKLLLSIIILLEEAILGGLVYYKF	2.44
NKLLLSIIILLEFAILGGLVYYKF	3.1
NKLLLSIIILLEGAILGGLVYYKF	3.93
NKLLLSIIILLEHAILGGLVYYKF	3.39
NKLLLSIIILLEIAILGGLVYYKF	3.27
NKLLLSIIILLEMAILGGLVYYKF	3.13
NKLLLSIIILLENAILGGLVYYKF	2.58
NKLLLSIIILLEPAILGGLVYYKF	3.15
NKLLLSIIILLEQAILGGLVYYKF	2.92
NKLLLSIIILLERAILGGLVYYKF	3.24
NKLLLSIIILLESAILGGLVYYKF	3.71

Variant	protein stability index
NKLLLSIIILLETAILGGLVYYKF	3.42
NKLLLSIIILLEVAILGGLVYYKF	1.79
NKLLLSIIILLEWAILGGLVYYKF	3.72
NKLLLSIIILLEYAILGGLVYYKF	2.83
NKLLLSIIILLELCILGGLVYYKF	2.98
NKLLLSIIILLELEILGGLVYYKF	3.15
NKLLLSIIILLELFILGGLVYYKF	3.19
NKLLLSIIILLELGILGGLVYYKF	3.17
NKLLLSIIILLELHILGGLVYYKF	3.82
NKLLLSIIILLELIILGGLVYYKF	1.84
NKLLLSIIILLELKILGGLVYYKF	2.48
NKLLLSIIILLELLILGGLVYYKF	3.61
NKLLLSIIILLELMILGGLVYYKF	2.43
NKLLLSIIILLELNILGGLVYYKF	2.81
NKLLLSIIILLELPILGGLVYYKF	2.64
NKLLLSIIILLELQILGGLVYYKF	3.3
NKLLLSIIILLELRILGGLVYYKF	3.34
NKLLLSIIILLELSILGGLVYYKF	2.35
NKLLLSIIILLELWILGGLVYYKF	3.4
NKLLLSIIILLELYILGGLVYYKF	3.19
NKLLLSIIILLELACLGGLVYYKF	2.38
NKLLLSIIILLELADLGGLVYYKF	3.64
NKLLLSIIILLELAELGGLVYYKF	2.52
NKLLLSIIILLELAFLGGLVYYKF	2.06

Variant	protein stability index
NKLLLSIIILLELAGLGGLVYYKF	3.52
NKLLLSIIILLELAHLGGLVYYKF	2.83
NKLLLSIIILLELAKLGGLVYYKF	3.29
NKLLLSIIILLELALLGGLVYYKF	2.62
NKLLLSIIILLELAMLGGLVYYKF	3.49
NKLLLSIIILLELANLGGLVYYKF	1.43
NKLLLSIIILLELAPLGGLVYYKF	3.21
NKLLLSIIILLELAQLGGLVYYKF	2.44
NKLLLSIIILLELARLGGLVYYKF	2.12
NKLLLSIIILLELASLGGLVYYKF	3
NKLLLSIIILLELATLGGLVYYKF	2.54
NKLLLSIIILLELAVLGGLVYYKF	4.17
NKLLLSIIILLELAWLGGLVYYKF	2.18
NKLLLSIIILLELAIAGGLVYYKF	4.1
NKLLLSIIILLELAICGGLVYYKF	2.13
NKLLLSIIILLELAIDGGLVYYKF	2.8
NKLLLSIIILLELAIFGGLVYYKF	2.62
NKLLLSIIILLELAIGGGLVYYKF	3.79
NKLLLSIIILLELAIHGGLVYYKF	4.31
NKLLLSIIILLELAIIGGLVYYKF	1.99
NKLLLSIIILLELAIKGGLVYYKF	3.6
NKLLLSIIILLELAIMGGLVYYKF	3.6
NKLLLSIIILLELAINGGLVYYKF	2.9
NKLLLSIIILLELAIPGGLVYYKF	2.27

Variant	protein stability index
NKLLLSIIILLELAIQGGLVYYKF	3.17
NKLLLSIIILLELAIRGGLVYYKF	2.77
NKLLLSIIILLELAISGGLVYYKF	2.23
NKLLLSIIILLELAITGGLVYYKF	2.9
NKLLLSIIILLELAIVGGLVYYKF	2.62
NKLLLSIIILLELAIWGGLVYYKF	2.31
NKLLLSIIILLELAILCGLVYYKF	3.4
NKLLLSIIILLELAILDGLVYYKF	1.51
NKLLLSIIILLELAILEGLVYYKF	3.26
NKLLLSIIILLELAILFGLVYYKF	3.71
NKLLLSIIILLELAILHGLVYYKF	2.42
NKLLLSIIILLELAILIGLVYYKF	2.35
NKLLLSIIILLELAILKGLVYYKF	3.17
NKLLLSIIILLELAILLGLVYYKF	3.46
NKLLLSIIILLELAILNGLVYYKF	2.64
NKLLLSIIILLELAILPGLVYYKF	2.58
NKLLLSIIILLELAILQGLVYYKF	3.08
NKLLLSIIILLELAILRGLVYYKF	2.35
NKLLLSIIILLELAILSGLVYYKF	3.45
NKLLLSIIILLELAILTGLVYYKF	3.94

Source: the supplement of paper PMC10567573
